Experimental data as given in publication PMC2120550.

Target: lysin from the pink abalone (H. corrugata) (Haliotis corrugata (pink abalone))
Assay: cross-linking

Chain of lysin from the pink abalone (H. corrugata) (natural protein) (P19448 19-155 limits assumed): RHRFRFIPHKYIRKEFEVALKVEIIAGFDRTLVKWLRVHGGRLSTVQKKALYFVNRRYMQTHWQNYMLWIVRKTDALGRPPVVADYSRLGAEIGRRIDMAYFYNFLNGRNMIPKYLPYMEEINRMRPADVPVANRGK

Question: “lysin from the pink abalone (H. corrugata) (natural protein)” was tested. Which stoichiometry N did it give?
Answer: 2
